In article PMC5801413:

Key:
Human glu-plasminogen = experiment: ELISA; settings: 5 μg/ml immobilized CbiA protein, 10 μg/ml plasminogen, polyclonal antibody 1:1,000, read off a plot
[1] = biological target: His6-tagged CbiA of B. miyamotoi (B. miyamotoi); experiment: ELISA; proteins (5 μg/ml) immobilised, plasminogen in the presence of increasing concentrations of the lysine analog tranexamic acid; binding without tranexamic acid set to 100%
[2] = biological target: His6-tagged CbiA of B. miyamotoi (B. miyamotoi); experiment: ELISA; CbiA (5 μg/ml) immobilised, increasing concentrations of plasminogen; non-linear regression, one-site specific binding model; apparent dissociation constant
[3] = biological target: His6-tagged CbiA of B. miyamotoi (B. miyamotoi); experiment: ELISA; proteins (5 μg/ml) immobilised, plasminogen in the presence of increasing concentrations of NaBr; binding without NaBr set to 100%

Substance | response (Absorbance at 490 nm) (Human glu-plasminogen; parent: est. 0.72) | response (Absorbance at 490 nm) (Human glu-plasminogen; parent: est. 0.78) | further results
His6-tagged CbiA of B. miyamotoi K153A | 1.1 | – | –
His6-tagged CbiA of B. miyamotoi K153A; K154A; K162A; K188A | 1 | – | –
His6-tagged CbiA of B. miyamotoi K154A | 0.83 | – | –
His6-tagged CbiA of B. miyamotoi K154A; K162A | 0.9 | – | –
His6-tagged CbiA of B. miyamotoi K154A; K162A; K188A | 1 | – | –
His6-tagged CbiA of B. miyamotoi K154A; R156A | – | 0.58 | –
His6-tagged CbiA of B. miyamotoi K162A | 1 | – | –
His6-tagged CbiA of B. miyamotoi K188A | 0.81 | – | –
His6-tagged CbiA of B. miyamotoi R145A | – | 0.66 | –
His6-tagged CbiA of B. miyamotoi R156A | – | 0.6 | –
His6-tagged CbiA of B. miyamotoi R163A | – | 0.74 | –
His6-tagged CbiA of B. miyamotoi R185A | – | 0.81 | –
Human glu-plasminogen (natural protein) | – | – | percent decrease of binding with 0.1 mM tranexamic acid [1]: > 17%; percent of binding at 10 mM tranexamic acid (without tranexamic acid = 100%) [1]: 48%; Kd [2]: 0.347 µM; percent of binding at 250 mM NaBr (without NaBr = 100%) [3]: 43%
